In publication PMC6201861:

Biological target: mAb-hERG1
Experiment: SPR; Biacore T200; mAb-hERG1 bound to a Protein G pre-coated CM5 chip (7693 RU); S5-Pore applied at 10, 50, 100, 500 nM, single cycle kinetics; contact 30 s, dissociation 120 s, 30 ul/min

mAb-hERG1, sequence (heavy, as listed by the source, chain 1 of 2): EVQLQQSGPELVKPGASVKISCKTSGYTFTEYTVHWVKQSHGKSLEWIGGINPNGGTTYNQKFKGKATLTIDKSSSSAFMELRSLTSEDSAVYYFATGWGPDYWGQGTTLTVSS
mAb-hERG1, sequence (light, as listed by the source, chain 2 of 2): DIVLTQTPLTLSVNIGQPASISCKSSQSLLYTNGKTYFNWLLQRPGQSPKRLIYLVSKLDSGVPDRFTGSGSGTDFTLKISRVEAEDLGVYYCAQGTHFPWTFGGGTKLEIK

B1: S5-Pore peptide (peptide)
peptide: EQPHMDSRIGWLHN
In the case of B1, the Kd is reported as 16.2 nM, the koff is reported as 0.0258 s⁻¹ and the kon is reported as 1.6e+06 M⁻¹ s⁻¹.
